Consider five substances from patent US20210238308A1.

What all share (assay): SPR, Protein L capture
Assay [1] deals with PRYSPRY domain of human TRIM21 with N-terminal 6xHis tag (human).
Another assay deals with human FcRn (human) (UniProt P55899).
Assay [2] addresses PRYSPRY domain of mouse TRIM21 with N-terminal 6xHis tag (mouse).

Chain of PRYSPRY domain of human TRIM21 with N-terminal 6xHis tag (human) (chain, as listed by the source limits assumed): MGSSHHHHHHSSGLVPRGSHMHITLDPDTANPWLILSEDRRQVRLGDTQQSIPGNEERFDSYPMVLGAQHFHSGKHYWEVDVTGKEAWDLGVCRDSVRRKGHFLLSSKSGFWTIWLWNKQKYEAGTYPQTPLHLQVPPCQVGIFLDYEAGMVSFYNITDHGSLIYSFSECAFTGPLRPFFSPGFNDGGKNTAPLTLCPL
Chain of UniProt P55899 (P55899 24-290 limits assumed, form in doubt, chain 1 of 2): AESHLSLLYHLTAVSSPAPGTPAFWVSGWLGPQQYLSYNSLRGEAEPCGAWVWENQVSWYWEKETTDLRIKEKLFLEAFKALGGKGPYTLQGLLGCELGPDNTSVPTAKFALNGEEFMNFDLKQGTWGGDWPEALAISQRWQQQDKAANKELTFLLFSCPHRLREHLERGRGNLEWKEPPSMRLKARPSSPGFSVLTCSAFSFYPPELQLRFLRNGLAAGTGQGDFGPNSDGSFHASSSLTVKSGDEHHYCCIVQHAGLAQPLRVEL
Chain of UniProt P55899 (chain, as listed by the source limits assumed, form in doubt, chain 2 of 2): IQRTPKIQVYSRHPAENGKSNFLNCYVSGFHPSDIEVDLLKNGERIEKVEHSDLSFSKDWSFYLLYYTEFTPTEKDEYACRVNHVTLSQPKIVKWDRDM
Chain of PRYSPRY domain of mouse TRIM21 with N-terminal 6xHis tag (mouse) (chain, as listed by the source limits assumed): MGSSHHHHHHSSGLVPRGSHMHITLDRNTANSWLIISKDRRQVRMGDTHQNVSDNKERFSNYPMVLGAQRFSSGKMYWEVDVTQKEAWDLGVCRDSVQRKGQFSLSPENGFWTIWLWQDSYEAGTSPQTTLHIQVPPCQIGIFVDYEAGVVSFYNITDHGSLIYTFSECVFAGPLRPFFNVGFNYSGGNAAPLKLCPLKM

With MRAH-G1d/MRAL-KT0 L432R (antibody), the hTRIM21 binding level ratio (variant/control antibody) in assay [1] was 0.099.

Take MRAH-G1d/MRAL-KT0 L432A (antibody): the hFcRn binding level ratio (variant/control antibody) with human FcRn (human) came out at 0.08.

Regarding MRAH-G1d/MRAL-KT0 N434H (antibody), the mTRIM21 binding level ratio (variant/control antibody) in assay [2] came out at 0.097.

As to MRAH-G1d/MRAL-KT0 E345K (antibody), the hTRIM21 binding level ratio (variant/control antibody) in assay [1] was 0.096.

As for MRAH-G1d/MRAL-KT0 L309Q (antibody), the hFcRn binding level ratio (variant/control antibody) with human FcRn (human) is 0.09.
